This is an account of results in patent publication US20250144194A1 (KAIMI BIOMEDICINE CHENGDU, published 2025).

Where a chain is given by its changes, count along the chain named.

In general, Kd refers to the constant that tells how readily two partners part at equilibrium.

For this experiment, the target named is T1, FcγRIIA protein (UniProt P12318 36-218, limits assumed).
T1 construct: also called hFcγRIIA
T1 sequence (looked up): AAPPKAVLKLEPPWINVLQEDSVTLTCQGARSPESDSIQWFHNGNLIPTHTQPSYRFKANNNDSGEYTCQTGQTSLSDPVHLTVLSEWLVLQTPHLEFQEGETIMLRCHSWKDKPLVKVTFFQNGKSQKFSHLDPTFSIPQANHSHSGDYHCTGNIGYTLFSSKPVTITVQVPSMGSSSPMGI
The experiment can be described thus: BLI, multi-concentration (5000-312.5 nM of Fc variant). The source says:
The Seq2-Sf9 and Seq3-Sf9 are identified using Coomassie Brilliant Blue stained SDS-PAGE gel, with BSA as a control protein. The arrows indicate the positions of Seq2-Sf9 and Seq3-Sf9, and it can be determined that the purified protein is obtained with a molecular weight of about 26 kDa. […] The curves shown from bottom to top indicate that the concentrations of the Seq2-Sf9 and Seq3-Sf9 proteins […] in sequence.
A general note: BLI is a label-free optical method that tracks binding on a fibre tip over time.

B1: Seq2-Sf9 (other)
chain: VDKKIVPADCGCAPCICAVPEVSSVFIFPPKPKDVLTITLTPKVTCVVVDISKDDPEVQFSWFVDDVEVHTAQTQPREEQFNSTFRSVSELPIMHQDWLNGKEFKCRVNSAAFPAPIEKTISKTKGRPKAPQVYTIPPPKEQMAKDKVSLTCMITDFFPEDITVEWQWNGQPAENYKNTQPIMDTDGSYFVYSKLNVQKSNWEAGNTFTCSVLHEGLHNHHTEKSLSHSPGL
modifications: non-mammalian (insect, Sf9) N-glycosylation at position 297 (EU numbering), without sialic acid
notes: Expressed from the pFastBacHTa-gp64 vector in Sf9 cells and purified from the supernatant by Protein A, about 26 kDa on SDS-PAGE; also called mouse Fc with three mutations
B1 gave a Kd of 789 nM.

B2: Seq3-Sf9 (other)
chain: B1 chain with A115L, I117E
modifications: non-mammalian (insect, Sf9) N-glycosylation at position 297 (EU numbering), without sialic acid
notes: also called mouse Fc with five mutations
Molecule B2 yielded a Kd of 450 nM.
